# According to patent US20250250357A1 (NANJING ZAIMING PHARMACEUTICAL, published 2025):
# B1: S009-F1.62.9 (antibody, human IgG1, kappa, V domains shown)
# VH: EVQLQQSGADLVKPGASVKLSCTVFGLNFKDTFMHWVRQRPEQGLEWIGRIDPANDNSIYGPKFQDKATITADTSSNTAYLHLSSLTSEDTAVYYCLYFDNWGHGTTLTVSS
# VL: DIVMTQAASSEPVTPGESVSISCRSDKSLLHSNGHNYLYWFLQRPGQSPHLLIYRMSNLASGVPDRFSGSGSGTAFTLRISRVEAEDVGVYYCMQHLEYPLTFGAGTKLELKR
# notes: Human-murine chimeric antibody, human IgG1/kappa constant regions
# B2: S009-F1.2.12 (antibody, human IgG1, kappa, V domains shown)
# VH: QVQLKQTGPGLVQPSQSLSITCTVSGFSLTNYAVHWVRQSPGKGLEWLGVIWSGGATDYNTVFISRLSISKDNSKSQVFFKVNSLQVDDTAIYYCARTGSGYAMDYWGQGTSVTVSS
# VL: DIVLTQSPATLSVTPGDRVSLSCRTSHNVNTYLHWYQQKSHESPRLLIKYASQSISEIPSRFSGSGSGTNFTLSINSVETEDFGMYFCHQTNRWPLTFGAGTKLELKR
# B3: S009-F1.7.14 (antibody, human IgG1, kappa)
# heavy: not shown
# light: QIVLTQSPAIMSASPGEKVTISCSASSSVSYMYWYQQKPGSSPKPWISRTSNLASGVPARFSGSGSGTSYSLTISSMEAEDAATYYCQQYHSYPPTLGAGTKLELKRTVAAPSVFIFPPSDEQLKSGTASVVCLLNNFYPREAKVQWKVDNALQSGNSQESVTEQDSKDSTYSLSSTLTLSKADYEKHKVYACEVTHQGLSSPVTKSFNRGEC
# notes: as for B1
# Biological target: T1, human MSLN-R2-his protein (human, UniProt Q13421 391-486)
# T1 construct: Region 2 of human MSLN, His-tagged; also called human MSLN-R2 protein; hMSLN-R2-his; not shown: His tag
# T1 sequence (Q13421 other isoform, or with tags, fused parts or gaps): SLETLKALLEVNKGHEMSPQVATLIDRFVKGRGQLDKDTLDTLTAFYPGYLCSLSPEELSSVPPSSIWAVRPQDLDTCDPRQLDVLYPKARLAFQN
# Assay: ELISA, coated MSLN-R2;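 further: chimeric antibodies bound to blocked coated plates for 2 h at 37 °C, TMB colour development stopped with HCl, with a negative control antibody for comparison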
Binder,OD450 at 0.0001 nM [OD450],OD450 at 0.001 nM [OD450],OD450 at 0.01 nM [OD450],OD450 at 0.1 nM [OD450],OD450 at 1 nM [OD450],OD450 at 10 nM [OD450],OD450 at 100 nM [OD450],OD450 at none (no antibody) [OD450]
B1,0.03,0.05,0.04,0.06,0.04,0.05,0.06,0.04
B2,0.05,0.05,0.05,0.06,0.1,0.3,1.44,0.05
B3,0.04,0.04,0.05,0.04,0.05,0.05,0.11,0.05

# Biological target: T2, human MSLN-R3-his protein (human, UniProt Q13421 487-598)
# T2 construct: Region 3 of human MSLN, His-tagged; also called human MSLN-R3 protein; hMSLN-R3-his; not shown: His tag
# T2 sequence (Q13421 495-606): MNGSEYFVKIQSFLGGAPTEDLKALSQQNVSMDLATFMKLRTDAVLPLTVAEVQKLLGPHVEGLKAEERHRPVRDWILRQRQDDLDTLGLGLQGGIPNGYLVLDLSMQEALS
# Assay: ELISA, coated MSLN-R3
Binder,OD450 at 0.0001 nM [OD450],OD450 at 0.001 nM [OD450],OD450 at 0.01 nM [OD450],OD450 at 0.1 nM [OD450],OD450 at 1 nM [OD450],OD450 at 10 nM [OD450],OD450 at 100 nM [OD450],OD450 at none (no antibody) [OD450]
B1,0.04,0.06,0.07,0.26,1.06,2,2.32,0.05
B2,0.05,0.06,0.05,0.05,0.05,0.06,0.06,0.06
B3,0.05,0.05,0.04,0.05,0.05,0.07,0.1,0.05

# Biological target: T3, human MSLN-R3-3 polypeptide (human)
# T3 construct: also called human MSLN-R3-3 protein; hMSLN-R3-3
# Assay: ELISA, coated MSLN-R3-3;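 further: chimeric antibodies in serial dilution bound to plate-coated antigen for 2 h at 37 °C, with a negative control antibody alongside, and TMB colour development stopped with HCl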
# Experimental: The plate was sealed with a plastic film and incubated at 4° C. overnight. The next day, the plate was washed twice with PBST, and a blocking buffer [PBS+2% (w/w) BSA] was added for blocking at room temperature for 2 h. The blocking buffer was discarded, and a chimeric antibody or negative control antibody serially diluted from 100 nM was added at 50 μL/well. After incubation at 37° C. for 2 h, the plate was washed 3 times with PBST. […] After incubation at 37° C. for 2 h, the plate was washed 5 times with PBST. A TMB substrate was added at 50 μL/well for incubation at room temperature for 5-10 min, and then a stop solution (1.0 N HCl) was added at 50 μL/well.
Binder,OD450 at 0.0001 nM [OD450],OD450 at 0.001 nM [OD450],OD450 at 0.01 nM [OD450],OD450 at 0.1 nM [OD450],OD450 at 1 nM [OD450],OD450 at 10 nM [OD450],OD450 at 100 nM [OD450],OD450 at none (no antibody) [OD450]
B1,0.06,0.07,0.07,0.07,0.06,0.07,0.13,0.07
B2,0.06,0.08,0.06,0.07,0.07,0.08,0.16,0.08
B3,0.07,0.07,0.07,0.07,0.07,0.13,0.72,0.07
